± gives the standard deviation of the averaged measurements.
What was measured:
[1] = test system: Saccharomyces cerevisiae; experiment: protein stability index of tFT-peptide fusion (C-terminal peptide) (PSI (0-1 scale)); higher = more stable (slower turnover)
Procedure: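 MPS profiling in S. cerevisiae of the tFT-X12 degron library: putative degron peptides plus stable controls, 12 aa, fused to the C-terminus of a sfGFP-mCherry timer. Cells are FACS-sorted into 8 mCherry/sfGFP bins and deep-sequenced. PSI runs from 0 (unstable) to 1 (stable). Backgrounds are wild type, das1Δ and doa10Δ at 30 °C, and wild type, das1Δ, cdc34-1 and cdc53-1 at 37 °C; 2-3 technical replicates each.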

[2] = test system: Saccharomyces cerevisiae; experiment: as above; conditions: genetic background: wild type; temperature: 30 C
[3] = genetic background: cdc34-1, temperature: 37 C
[4] = genetic background: cdc53-1, temperature: 37 C
[5] = genetic background: das1 deletion, temperature: 30 C
[6] = genetic background: das1 deletion, temperature: 37 C
[7] = genetic background: doa10 deletion, temperature: 30 C
[8] = genetic background: wild type, temperature: 30 C
[9] = genetic background: wild type, temperature: 37 C
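Note: PSI is a weighted mean of sequencing reads over stability bins, variants kept only with over 10 reads, mCherry proximal and sfGFP distal, peptide attached via GGGS linker.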

Sequence | protein stability index [1, 3] | protein stability index [1, 4] | protein stability index [1, 5] | protein stability index [1, 6] | protein stability index [1, 7] | protein stability index [1, 8] | protein stability index [1, 9] | protein stability index [2]
VIGLLSYFLVYL | 0.498 ± 0.061 | 0.513 ± 0.0062 | 0.407 ± 0.037 | 0.6091 ± 0.0039 | 0.438 ± 0.032 | 0.406 ± 0.019 | 0.581 ± 0.03 | 0.491 ± 0.02
VSRVHIRIEGNH | 0.694 ± 0.027 | 0.755 ± 0.028 | 0.622 ± 0.017 | 0.7218 ± 0.0064 | 0.635 ± 0.026 | 0.634 ± 0.035 | 0.70121 ± 0.00047 | 0.528 ± 0.082
VPQQWFAETGRC | 0.72 ± 0.031 | 0.763 ± 0.036 | 0.668 ± 0.026 | 0.7455 ± 0.0051 | 0.657 ± 0.038 | 0.662 ± 0.028 | 0.742 ± 0.014 | 0.745 ± 0.019
NSCHFYSRFYLA | 0.651 ± 0.012 | 0.7421 ± 0.00091 | 0.657 ± 0.022 | 0.70341 ± 0.00042 | 0.243 ± 0.0054 | 0.3 ± 0.019 | 0.5196 ± 0.00096 | 0.3452 ± 0.0025
PFAFLSLVLLLP | 0.51 ± 0.017 | 0.5103 ± 0.0028 | 0.418 ± 0.029 | 0.5176 ± 0.0043 | 0.383 ± 0.027 | 0.35 ± 0.023 | 0.482 ± 0.02 | 0.418 ± 0.0045
VWRLCFPFALVR | 0.0577 ± 0.022 | 0.0537 ± 0.012 | 0.155 ± 0.025 | 0.18 ± 0.023 | 0.225 ± 0.0026 | 0.132 ± 0.025 | 0.1406 ± 0.00093 | 0.194 ± 0.02
ACVWVVALVWVF | 0.121 ± 0.005 | 0.249 ± 0.041 | 0.174 ± 0.035 | 0.303 ± 0.015 | 0.132 ± 0.0086 | 0.153 ± 0.01 | 0.243 ± 0.009 | 0.213 ± 0.016
PRHLTPPPAPSA | 0.704 ± 0.059 | 0.721 ± 0.024 | 0.675 ± 0.022 | 0.708 ± 0.013 | 0.66 ± 0.038 | 0.659 ± 0.022 | 0.6742 ± 0.0042 | 0.642 ± 0.24
HLYPFPSLHFAF | 0.74 ± 0.043 | 0.791 ± 0.012 | 0.681 ± 0.013 | 0.778 ± 0.026 | 0.683 ± 0.025 | 0.688 ± 0.015 | 0.753 ± 0.019 | 0.799 ± 0.1
SLSSSFQFSSPS | 0.701 ± 0.035 | 0.7506 ± 0.0045 | 0.69 ± 0.051 | 0.722 ± 0.026 | 0.6672 ± 0.00083 | 0.65 ± 0.032 | 0.7357 ± 0.0029 | 0.726 ± 0.094
YFFFLFFLLPPF | 0.453 ± 0.045 | 0.477 ± 0.025 | 0.408 ± 0.041 | 0.505 ± 0.0069 | 0.416 ± 0.007 | 0.356 ± 0.034 | 0.498 ± 0.0073 | 0.374 ± 0.029
EGVVLLVDCVAT | 0.4623 ± 0.0015 | 0.465 ± 0.02 | 0.301 ± 0.031 | 0.514 ± 0.0093 | 0.26 ± 0.0074 | 0.308 ± 0.02 | 0.492 ± 0.02 | 0.41 ± 0.025
GFFCVWSLLFFN | 0.328 ± 0.045 | 0.395 ± 0.016 | 0.262 ± 0.045 | 0.449 ± 0.018 | 0.218 ± 0.031 | 0.187 ± 0.021 | 0.385 ± 0.005 | 0.283 ± 0.016
IHIFIIFRVQWK | 0.176 ± 0.064 | 0.232 ± 0.036 | 0.179 ± 0.025 | 0.272 ± 0.018 | 0.163 ± 0.0023 | 0.156 ± 0.05 | 0.249 ± 0.03 | 0.227 ± 0.012
VKGYISLLLVLI | 0.269 ± 0.01 | 0.332 ± 0.012 | 0.264 ± 0.04 | 0.419 ± 0.0071 | 0.289 ± 0.0043 | 0.259 ± 0.014 | 0.365 ± 0.011 | 0.345 ± 0.013
YLGSLQVPVHLF | 0.676 ± 0.024 | 0.725 ± 0.062 | 0.639 ± 0.022 | 0.756 ± 0.011 | 0.226 ± 0.013 | 0.255 ± 0.019 | 0.455 ± 0.011 | 0.352 ± 0.011
LLAWLHTVQRVG | 0.695 ± 0.028 | 0.7529 ± 0.0028 | 0.659 ± 0.02 | 0.7844 ± 0.0033 | 0.226 ± 0.0046 | 0.271 ± 0.023 | 0.493 ± 0.013 | 0.339 ± 0.011

Sequence | protein stability index [1, 3] | protein stability index [1, 4] | protein stability index [1, 5] | protein stability index [1, 6] | protein stability index [1, 7] | protein stability index [1, 8] | protein stability index [1, 9] | protein stability index [2]
HLGNTMIKKLIG | 0.695 ± 0.049 | 0.722 ± 0.046 | 0.621 ± 0.012 | 0.728 ± 0.035 | 0.405 ± 0.033 | 0.459 ± 0.064 | 0.6202 ± 0.0029 | 0.516 ± 0.023
IDLISRVTVVAR | 0.394 ± 0.02 | 0.4267 ± 0.0012 | 0.268 ± 0.036 | 0.464 ± 0.0081 | 0.2236 ± 0.0022 | 0.288 ± 0.029 | 0.441 ± 0.01 | 0.4 ± 0.0047
LLVFFLAIPSLV | 0.286 ± 0.011 | 0.343 ± 0.02 | 0.23 ± 0.037 | 0.413 ± 0.0073 | 0.195 ± 0.014 | 0.219 ± 0.033 | 0.3853 ± 0.002 | 0.337 ± 0.031
PVPPSLLHRPPF | 0.679 ± 0.056 | 0.736 ± 0.045 | 0.682 ± 0.014 | 0.722 ± 0.018 | 0.677 ± 0.011 | 0.673 ± 0.021 | 0.727 ± 0.027 | 0.33 ± 0.014
FFCLVEVFVGVF | 0.0707 ± 0.051 | 0.108 ± 0.023 | 0.115 ± 0.044 | 0.177 ± 0.0027 | 0.089 ± 0.018 | 0.0928 ± 0.033 | 0.107 ± 0.014 | 0.2798 ± 0.0012
PPLTRVPLSISA | 0.434 ± 0.0084 | 0.465 ± 0.016 | 0.292 ± 0.04 | 0.492 ± 0.012 | 0.267 ± 0.0075 | 0.305 ± 0.034 | 0.46 ± 0.005 | 0.413 ± 0.052
FQFTLWRTLLCS | 0.1843 ± 0.00066 | 0.248 ± 0.03 | 0.218 ± 0.026 | 0.3394 ± 0.0027 | 0.113 ± 0.015 | 0.137 ± 0.021 | 0.174 ± 0.0054 | 0.189 ± 0.0077
HRNILSIIIKNL | 0.541 ± 0.083 | 0.681 ± 0.027 | 0.642 ± 0.057 | 0.685 ± 0.029 | 0.0819 ± 0.039 | 0.0771 ± 0.015 | 0.1025 ± 0.00088 | 0.109 ± 0.046
AIMFLVLGYVFF | 0.262 ± 0.085 | 0.395 ± 0.018 | 0.269 ± 0.03 | 0.462 ± 0.019 | 0.255 ± 0.036 | 0.276 ± 0.027 | 0.452 ± 0.019 | 0.378 ± 0.034
ERRWKRKVIGLC | 0.632 ± 0.034 | 0.736 ± 0.031 | 0.594 ± 0.015 | 0.734 ± 0.0071 | 0.115 ± 0.025 | 0.131 ± 0.0095 | 0.214 ± 0.024 | 0.274 ± 0.047
RLLRGDRMVICS | 0.5515 ± 0.0014 | 0.565 ± 0.057 | 0.395 ± 0.039 | 0.615 ± 0.0066 | 0.3601 ± 0.0008 | 0.375 ± 0.022 | 0.582 ± 0.0066 | 0.433 ± 0.017
GQRIKWGPIYLT | 0.352 ± 0.079 | 0.336 ± 0.0081 | 0.366 ± 0.028 | 0.444 ± 0.013 | 0.397 ± 0.034 | 0.22 ± 0.027 | 0.365 ± 0.052 | 0.249 ± 0.019
INKRDARIHLLM | 0.658 ± 0.012 | 0.6975 ± 0.0064 | 0.623 ± 0.023 | 0.701 ± 0.00084 | 0.32 ± 0.034 | 0.382 ± 0.029 | 0.547 ± 0.0084 | 0.47 ± 0.0047
WLSFAIECGMVW | 0.1938 ± 0.0014 | 0.28 ± 0.058 | 0.252 ± 0.023 | 0.3286 ± 0.0012 | 0.2135 ± 0.0014 | 0.249 ± 0.026 | 0.287 ± 0.032 | 0.357 ± 0.045
LILRVLFLFEPC | 0.4385 ± 0.0028 | 0.4842 ± 0.0035 | 0.389 ± 0.026 | 0.511 ± 0.0049 | 0.395 ± 0.022 | 0.368 ± 0.031 | 0.481 ± 0.0066 | 0.42 ± 0.025
SCLVLDYCFSLV | 0.649 ± 0.037 | 0.631 ± 0.012 | 0.419 ± 0.029 | 0.643 ± 0.0034 | 0.446 ± 0.019 | 0.435 ± 0.02 | 0.613 ± 0.0062 | 0.442 ± 0.016

— the supplement of paper PMC10724198
